{"source": "paper PMC1847684", "about": "“Isolation and functional characterization of a cDNA coding a hydroxycinnamoyltransferase involved in phenylpropanoid biosynthesis in Cynara cardunculus L” (BMC Plant Biology, 2007)", "proteins": {"B1": {"name": "HCT (globe artichoke hydroxycinnamoyltransferase; CcHCT) (Cynara cardunculus) (protein)", "chain": "MKIEVRESTMVRPAEETPRINLWNSNVDLVVPNFHTPSVYFYRPNGAANFFDPKVMKDALSRALVPFYPMGGRLKRDEDGRIEIDCQGQGVLFVEAESDGVIDDFGDFAPTLELRKLIPAVDYTLGIESYSLLVLQVTYFKCGGVSLGVGMQHHAADGASGLHFINTWSDLARGLDLAVPPFIDRTLLRSRDPPQPAFDHIEYQPAPPMKTAPTPTPTDDESVPETTVSIFKLTRDQVNALKGKSKEDGNTVNYSSYEMLSGHVWRCVCKARGLPDDQDTKLYIATDGRARLRPSLPRGYFGNVIFTTTPIAVAGDLQSKPTWYAASKIHDALARMDDDYLKSALDYLELQPDLKALVRGAHTFKCPNLGITSWARLPIHDADFGWGRPIFMGPGGIAYEGLSFVLPSPINDGSLSIVISLQAEHMKLFSKFLYDI", "notes": "full-length ORF (1308 bp, 436 residues printed, ~50 kDa), pET3a NdeI/BamHI, no tag mentioned, E. coli BL21(DE3) pLysE at 28 C"}}, "experiment_in_all_cases": "HPLC product assay, Lineweaver-Burk", "type_in_all_cases": "biochemical, Cynara cardunculus", "key": {"[1]": {"substrate": "CC(C)(COP(=O)(O)OP(=O)(O)OC[C@H]1O[C@@H](n2cnc3c(N)ncnc32)[C@H](O)[C@@H]1OP(=O)(O)O)[C@@H](O)C(=O)NCCC(=O)NCCSC(=O)/C=C/c1ccc(O)c(O)c1", "conditions": "20 mM quinate as acceptor, sodium phosphate pH 7.5, 1 mM DTT, 30 C", "description": "(§1) HPLC product assay, Lineweaver-Burk on HCT (globe artichoke hydroxycinnamoyltransferase; CcHCT)"}, "[2]": {"substrate": "O=C(O)[C@]1(O)C[C@@H](O)[C@@H](O)[C@H](O)C1", "conditions": "300 μM p-coumaroyl-CoA as donor, sodium phosphate pH 7.5, 1 mM DTT, 30 C", "description": "as §1"}, "[3]": {"substrate": "CC(C)(COP(=O)(O)OP(=O)(O)OC[C@H]1O[C@@H](n2cnc3c(N)ncnc32)[C@H](O)[C@@H]1OP(=O)(O)O)[C@@H](O)C(=O)NCCC(=O)NCCSC(=O)/C=C/c1ccc(O)cc1", "conditions": "20 mM quinate as acceptor, sodium phosphate pH 7.5, 1 mM DTT, 30 C, recombinant bacterial extract (discussion says purified, no purification described)", "description": "as §1"}}, "data": [{"protein": "B1", "values": [{"measurement": "Km", "setting": "[1]", "result": "61.75 ± 0.004", "unit": "µM"}, {"measurement": "Vmax", "setting": "[1]", "result": 0.0402, "unit": "µmol/min/mg"}, {"measurement": "Vmax/Km", "setting": "[1]", "result": 600, "unit": "µL/min/mg"}, {"measurement": "Km", "setting": "[2]", "result": "9200 ± 5600", "unit": "µM"}, {"measurement": "Vmax", "setting": "[2]", "result": 0.126, "unit": "µmol/min/mg"}, {"measurement": "Vmax/Km", "setting": "[2]", "result": 12, "unit": "µL/min/mg"}, {"measurement": "Km", "setting": "[3]", "result": "53.0 ± 13.0", "unit": "µM"}, {"measurement": "Vmax", "setting": "[3]", "result": 0.132, "unit": "µmol/min/mg"}, {"measurement": "Vmax/Km", "setting": "[3]", "result": 2460, "unit": "µL/min/mg"}]}]}
